Literature values in paper PMC7826847.
Like-named read-outs stand apart in the source and are kept apart here.

What was measured:
[1] = target: Nectin-3 (UniProt Q9NQS3)
[2] = target: Nectin-3 (UniProt Q9NQS3); remark: listed apart in the source

Sequence of Nectin-3 (Q9NQS3 58-404): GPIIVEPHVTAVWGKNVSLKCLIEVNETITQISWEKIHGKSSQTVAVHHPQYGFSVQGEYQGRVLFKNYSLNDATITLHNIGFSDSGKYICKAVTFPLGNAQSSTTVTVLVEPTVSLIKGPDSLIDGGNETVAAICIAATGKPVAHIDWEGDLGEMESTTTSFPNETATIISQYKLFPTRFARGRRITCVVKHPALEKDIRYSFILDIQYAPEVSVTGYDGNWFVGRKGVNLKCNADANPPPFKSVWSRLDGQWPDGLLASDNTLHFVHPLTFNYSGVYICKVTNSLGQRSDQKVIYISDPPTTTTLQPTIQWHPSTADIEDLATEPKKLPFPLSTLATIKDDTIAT
Sequence of Nectin-2 (Q92692 32-360): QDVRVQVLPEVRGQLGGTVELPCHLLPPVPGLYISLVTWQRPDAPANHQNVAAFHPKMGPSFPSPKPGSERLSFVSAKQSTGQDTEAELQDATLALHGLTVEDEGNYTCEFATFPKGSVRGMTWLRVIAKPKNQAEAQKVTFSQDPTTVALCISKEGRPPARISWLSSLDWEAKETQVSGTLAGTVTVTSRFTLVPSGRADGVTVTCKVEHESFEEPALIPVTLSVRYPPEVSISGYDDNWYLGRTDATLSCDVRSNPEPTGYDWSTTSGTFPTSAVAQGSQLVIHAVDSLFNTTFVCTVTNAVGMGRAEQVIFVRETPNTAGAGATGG
Sequence of Nectin-1 (Q15223 31-355): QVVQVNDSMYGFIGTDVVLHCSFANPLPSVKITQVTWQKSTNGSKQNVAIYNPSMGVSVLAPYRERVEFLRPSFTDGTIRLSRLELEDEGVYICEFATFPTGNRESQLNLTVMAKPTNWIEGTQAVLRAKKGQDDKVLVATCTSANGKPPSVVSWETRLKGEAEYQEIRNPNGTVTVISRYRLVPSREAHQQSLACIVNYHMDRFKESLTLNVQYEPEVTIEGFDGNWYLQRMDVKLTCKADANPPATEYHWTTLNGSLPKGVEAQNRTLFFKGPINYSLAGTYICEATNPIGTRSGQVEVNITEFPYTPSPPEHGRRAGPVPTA

Row | Kd [1] [nM] | Kd [2] [nM] | Substance
1 | 2.3 | – | Nectin-1 (from UniProt Q15223)
2 | – | 360 | Nectin-2 (from UniProt Q92692)
